Assay results: the RNAGym collection of RNA variant scans (doi:10.1101/gr.219683.116)

B1: mRNA-splicing (parent)
chain: AGUUGCUGCUGGGAGCUCCAGCACAGUGAAAUGGACAGAAGGGCAGAGCAA

Variants of: B1
Test: exon inclusion enrichment index; higher = more inclusion; WT1 exon 5 minigene, HEK293

Variant | exon inclusion enrichment index
G5U G8U C9U U10A G11C | 0.155
G5A C6G U7G C9A A29G A30U | 0.000871
G5A U7C G8A U10C G43C | 2.52
G5C C6A U7C G8A U10A A45G | 0.276
G5U G8U C9U C44A | 0.454
G5C C6G U7C U10C G42U G43C | 2.28
G5A C6G U7G C9A C24G A25C | 0.00471
G5A U7C G8A U10C A23G | 3.56
G5A C6U U7A G8U C9A G43U C44U | 0.00909
G5A C6U U7A G8U C9A G43U C44A | 0.00905
G5C C6G U7C U10C G26U U27A | 2.22
G2U U3C C6A U7C C9A U10C | 4.67
G5A C6U U7A G8U C9A A47G G48C | 0.0173
G5C C6A U7C G8A U10A G42U G43C | 0.0644
G5C C6A U7C G8A U10A G11A G12U | 0.0692
G5C C6G U7C U10C G11U G12A | 1.11
G2A U3C | 0.0113
G5A U7C G8A U10C G28U A29U | 0.443
G5C C6A U7C G8A U10A C18U | 0.054
G5C C6A U7C G8A U10A A40G G41U | 0.0884
G5C C6A U7C G8A U10A A40G G41C | 0.666
G5A C6U U7A G8U C9A G43A C44U | 0.072
G5C C6A U7C G8A U10A G48A | 0.25
G5C C6G U7C U10C A25U G26A | 3.89

Variant | exon inclusion enrichment index
C6A U7A C9A U10A A23U | 0.394
C6A U7C C9A U10C U27A G28C | 3.18
C6A U7A C9A U10A G11A G12A | 1.79
G5A C6U U7A G8U C9A U10C G11C | 0.845
G5C C6A U7C G8A U10A A39G A40G | 0.0106
G5C C6A U7C G8A U10A A23G C24A | 0.48
G5C C6A U7C G8A U10A C16A U17G | 0.0171
U3A U4C G5C C6U G8C C9U U10C | 2.23
G5C C6G U7C U10C A23G | 3.57
G5C C6A U7C G8A U10A C18G C19U | 0.00896
G2A U3A G5A U7C G8A U10C | 2.08
G5C C6G U7C U10C A29C A30U | 3.02
G2C U3A G5C C6G U7C U10C | 3.34
G5A U7C G8A U10C A25G | 3.43
G5U G8U C9U G13C A14G | 0.2
G5U G8U C9U G13C A14U | 0.1
G8A C9G | 0.0723
G33A | 0.0129
C6A U7C C9A U10C C36U | 1.34
G5C G8A U10A | 0.0176
G5C C6U G8C C9U U10C A35G C36G | 0.14
C6A U7C C9A U10C C44A | 4.44
G5A C6U U7A G8U C9A G15C | 0.156
G5A U7C G8A U10C A30G A31G | 0.823

Variant | exon inclusion enrichment index
C6A U7C C9A U10C G12A | 3.18
G28A A29G | 0.0365
C6A U7A C9A U10A G38U | 0.223
C6A U7A C9A U10A U32G G33U | 0.178
G5C C6U G8C C9U U10C G21A C22G | 1.93
G21C C22U | 2.41
G5U G8U C9U U32A | 0.11
G5C C6G U7C U10C A39C A40G | 3.52
G5U G8U C9U U32A G33C | 0.219
C6A U7A C9A U10A C19A A20U | 0.195
G5C C6U G8C C9U G11U | 0.905
G5C C6A U7C G8A U10A G28C A29C | 0.0814
G5A C6U U7A G8U C9A U10A G11U | 0.0948
G5A C6G U7G C9A A30G A31C | 0.00143
G5C C6U G8C C9U U10C A29G A30U | 0.538
G5A C6G U7G C9A G11C G12A | 0.000679
G5U G8U C9U G12U G13U | 0.000363
G5C C6G U7C U10C A25U | 3.84
G5U G8U C9U G42A | 0.667
G5C C6A U7C G8A U10A G34C A35U | 0.0152
G21U C22G | 2.39
G5C C6U G8C C9U U10C G21C C22A | 1.71
G5C C6U U7C G8C C9U U10C | 1.73
G2U U3G G5C C6U G8C C9U U10C | 3.99

Variant | exon inclusion enrichment index
C6A U7A C9A U10A G28U A29U | 0.122
G5U G8U C9U A47G G48U | 0.00268
C6A U7C C9A U10C A45C G46A | 1.88
G5C C6U G8C C9U U10C G21U C22G | 1.74
G5A U7C G8A U10C U17C C18G | 2.38
G33A G34U | 0.0122
C6A U7A C9A U10A G46C A47U | 0.833
C6A U7A C9A U10A G46C A47C | 0.943
G5A C6U U7A G8U C9A U32G G33A | 0.00894
G5A C6U U7A G8U C9A U10G G11U | 0.014
G5A C6U U7A G8U C9A U10G G11A | 0.0194
G5A C6U U7A G8U C9A G28C A29U | 0.0282
G5C C6G U7C U10C U27A G28U | 1.9
G5C C6A U7C G8A U10A A45U G46U | 0.0227
G5A C6U U7A G8U C9A A37U G38A | 0.0163
G2A U3G G5C C6U G8C C9U U10C | 1.42
U3A U4A C6A U7A C9A U10A | 0.441
G5C C6U G8C C9U U10C A45U G46U | 0.648
G5A C6G U7G C9A C16U U17C | 0.000766
G5A C6G U7G C9A A30U A31U | 0.00264
U3C U4A C6A U7C C9A U10C | 2.21
G34A A35G | 0.0204
G13A A14C | 0.227
U4A G5U U7C G8A U10C | 2.36

Variant | exon inclusion enrichment index
G5C C6A U7C G8A U10A C18U C19A | 0.00114
G5U G8U C9U U27A | 0.208
G5C C6A U7C G8A U10A A29U A30G | 0.125
C6G U7A | 0.00764
C6A U7C C9A U10C A20G | 3.85
G5C C6A U7C G8A U10A G33C G34U | 0.0659
A40U | 0.156
A14C G15U | 0.0261
A14C G15A | 0.0127
G5C C6G U7C U10C G11C | 2.92
G5C C6G U7C U10C G11A | 2.79
G5C C6G U7C C9A | 2.73
C6A U7A C9A U10A G41A G42U | 0.617
G5U G8U C9U A30C A31C | 0.347
C6A U7C C9A U10C G26A | 3.92
G5A U7C G8A U10C U27A | 2.49
G5U G8U C9U A35U C36A | 0.00069
C6A U7A C9A U10A A35G C36G | 0.0241
U27A G28U | 0.0261
G5C C6A U7C G8A U10A A39C A40C | 0.334
G5C C6U G8C C9U U10C C44A A45U | 4.04
G5C C6U G8C C9U U10C G11A G12A | 0.685
C6A U7A C9A U10A G34C A35U | 0.104
G5A C6U U7A G8U C9A C22G A23U | 0.00095

Variant | exon inclusion enrichment index
A31G U32C | 0.99
C6A U7A C9A U10A U17C | 0.424
G5C C6A U7C G8A U10A G41A G42A | 0.101
A29U A30C | 0.119
G5A C6G U7G C9A C36U | 0.00174
G5A C6G U7G C9A C36G | 0.000918
C6A U7C C9A U10C C16U U17G | 2.04
G5C C6A U7C G8A U10A C44A | 0.477
G5A C6G U7G C9A G42A G43C | 0.0943
G5C C6G U7C U10C C22U A23G | 3.6
G5C C6U G8C C9U U10C A23C C24U | 0.867
G5C C6G U7C U10C G21A C22A | 1.7
G5C C6G U7C U10C G21A C22U | 1.87
C6A U7A G8A C9U U10A | 0.0156
G5C C6A U7C G8A U10A U17A C18U | 0.0447
G5C C6U G8C C9U U10C G12C G13U | 0.036
C16U U17A | 0.0567
G5C C6U U7C C9A U10C | 3.23
G5C C6G U7C U10C A29G | 3.72
G5A C6G U7G C9A A14C G15A | 0.000979
G5A U7C G8A U10C C24G A25G | 1.35
G5A C6G U7G C9A A40U | 0.00193
G5C C6A U7C G8A U10A A25C | 0.77
C19G A20C | 2.84

Variant | exon inclusion enrichment index
C6A U7C G8C C9A U10A | 0.587
C6A U7C C9A U10C G13A A14C | 3.39
C6A U7A C9A U10A A30U A31U | 0.426
U4C G5U C6A U7C C9A U10C | 4.16
C6A U7A C9A U10A C44G | 1.03
G5A U7C G8A U10C U32A G33C | 2.91
G5U G8U C9U G46A | 0.192
G5A U7C G8A U10C C16U U17C | 1.33
G5C C6G U7A C9A U10A | 0.95
G5C C6A U7C G8A U10A A45G G46U | 0.0847
G5A C6G U7G C9A U27A G28C | 0.0045
C6A U7C C9A U10C G38A A39G | 2.68
G5A C6U U7A G8U C9A A31C U32G | 0.0628
G5A U7C G8A U10C C24A | 2.26
G5C C6A U7C G8A U10A U32C G33C | 0.153
C6A U7A G8C U10A | 0.371
G5C C6U G8C C9U U10C G15U C16U | 1.32
U3C U4C G5C C6A U7C G8A U10A | 0.144
G5A U7C G8A U10C G34A A35C | 1.83
G5U G8U C9U G43U C44A | 0.0152
G5A C6U U7A G8U C9A A47U G48U | 0.0462
G5C C6A U7C G8A U10A A14C G15U | 0.00827
C6A U7C C9A U10C C24A A25U | 2.96
